Publication doi:10.1101/197848

Biological target: Xenopus Smc3R626C-Halo (subunit of the hinge-substituted recombinant tetramer, not crosslinked) (Xenopus) (UniProt O93309)
Experiment: cross-linking

“Xenopus Smc1D566C (subunit of the hinge-substituted recombinant tetramer) (from UniProt O93308 1-1232) (natural protein)” was tested, and the crosslinking efficiency was 40%.
